Here are results for 36 sequences from the supplement of paper PMC10567573.

The data set in a line: protein stability index of a GFP-peptide fusion (GPS, HEK-293T) (PSI 1-6); higher = more stable. As to conditions: c terminus: a fixed tail appended.

± gives the standard deviation.
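Note: 24-mer peptide tiles fused after GFP, lentivirally expressed, FACS-sorted into six equal bins by GFP/DsRed ratio, decoded by Illumina sequencing, PSI is the read-weighted mean bin number.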

Take LENVLDPDSFYELKSQPLPLRSSL [TFE3]: the protein stability index (treatment: DMSO) came out at 3.4 ± 0.27 and the protein stability index (treatment: MLN4924 1 uM, 8 h) was found to be 3.49 ± 0.21.

With LEPAQRPPLSHIMAQPLCIRALLN [NEK8], the protein stability index turned out to be 3.35 ± 0.21 (treatment: DMSO) and 3.48 ± 0.16 (treatment: MLN4924 1 uM, 8 h).

On to LEPGSADPLANGCQGVSEAAHRLA [PSD2], for which the protein stability index (treatment: DMSO) is 5.22 ± 0.075 and the protein stability index (treatment: MLN4924 1 uM, 8 h) is 5.23 ± 0.24.

Take LETEQGKPFVSVFRHLRLQYIISD [GMCL1]: the protein stability index was found to be 2.21 ± 0.56 (treatment: DMSO) and 2.05 ± 0.33 (treatment: MLN4924 1 uM, 8 h).

Take LFGFSAVSIMYLVLVLAVQVHAWQ [JAGN1]: the protein stability index was 3.8 ± 0.15 (treatment: DMSO) and 2.97 ± 0.39 (treatment: MLN4924 1 uM, 8 h).

For the sequence LFRKDVDDATLSRLELERKIESLM [PRPH], the protein stability index was 3.06 ± 0.22 (treatment: DMSO) and 3.33 ± 0.29 (treatment: MLN4924 1 uM, 8 h).

The sequence LFYSAEVEMLCDQAWGSMLEVPAG [CCDC3] displayed a protein stability index (treatment: DMSO) of 1.92 ± 0.53 and a protein stability index (treatment: MLN4924 1 uM, 8 h) of 2.26 ± 0.41.

On to LGCQGAQFVSSVPRCDLVDLGEGK [FAM189A2], for which the protein stability index was 4.31 ± 0.14 (treatment: DMSO) and 4.18 ± 0.13 (treatment: MLN4924 1 uM, 8 h).

The sequence LGIGMDSCVIPLRHGGLSLVQTTD [SEPHS2] displayed a protein stability index (treatment: DMSO) of 2.8 ± 0.33 and a protein stability index (treatment: MLN4924 1 uM, 8 h) of 2.98 ± 0.4.

With LGLGSMIGTMAGITTPIIDTFKVP [SLC6A17], the protein stability index runs as follows: (treatment: DMSO) 2.55 ± 0.12; (treatment: MLN4924 1 uM, 8 h) 2.51 ± 0.31.

LGPLGSTAFLPDSKCLVDDGTGRM [GALNT9]: the protein stability index (treatment: DMSO) came to 3.89 ± 0.36 and the protein stability index (treatment: MLN4924 1 uM, 8 h) turned out to be 4.24 ± 0.21.

On to LGPRDAGTRGRLESAQATFQAHRD [ARFIP2], for which the protein stability index was 4.62 ± 0.35 (treatment: DMSO) and 4.67 ± 0.27 (treatment: MLN4924 1 uM, 8 h).

Turning to LGSDYEQPLEVKNNSNLQRMGSSE [CDC25A], the protein stability index came to 5.01 ± 0.19 (treatment: DMSO) and 4.94 ± 0.57 (treatment: MLN4924 1 uM, 8 h).

On to LGSQIKSLCNLEESITSAGRDDLE [FAM98B], for which the protein stability index reads like this: (treatment: DMSO) 4.63 ± 0.3; (treatment: MLN4924 1 uM, 8 h) 4.74 ± 0.17.

Sequence LHGKAIKVEQAKKPSFQSGGRRRP [RBMY1A1] registered a protein stability index (treatment: DMSO) of 3.89 ± 0.2 and a protein stability index (treatment: MLN4924 1 uM, 8 h) of 4.21 ± 0.16.

As for LHRLKFLGFARRNWGNGKRPNLET [GDAP1], the protein stability index is, setting by setting: (treatment: DMSO) 2.22 ± 0.32; (treatment: MLN4924 1 uM, 8 h) 2.44 ± 0.45.

With LHVNGESLEMDSDEDDSEELEEDD [EHMT1], the protein stability index turned out to be 5.41 ± 0.26 (treatment: DMSO) and 5.28 ± 0.12 (treatment: MLN4924 1 uM, 8 h).

As to LIKEGGMPLLRDIIKMATARQETK [ZER1], the protein stability index (treatment: DMSO) stood at 2.69 ± 0.32 and the protein stability index (treatment: MLN4924 1 uM, 8 h) came out at 2.65 ± 0.38.

With LIKKKKEELEAKRLQCPFEQELLR [FAM107A], the protein stability index by setting is: (treatment: DMSO) 3.66 ± 0.12; (treatment: MLN4924 1 uM, 8 h) 3.71 ± 0.15.

For LIYTLKNAEMKSAMRKLWSKKVSL [OR4A15], the protein stability index runs as follows: (treatment: DMSO) 2.41 ± 0.97; (treatment: MLN4924 1 uM, 8 h) 2.04 ± 0.12.

Consider LIYVVIDLPINVFKLLAGRWPFDH [EDNRA], for which the protein stability index runs as follows: (treatment: DMSO) 2.27 ± 1; (treatment: MLN4924 1 uM, 8 h) 3.04 ± 0.23.

On to LKAIIFFDPDAKGLSDPGKIKRLR [HNF4A], for which the protein stability index is, setting by setting: (treatment: DMSO) 2.45 ± 0.33; (treatment: MLN4924 1 uM, 8 h) 2.37 ± 0.12.

Consider LKDDIYIRYQSFNNQSDLEKEMQK [PRIM1], for which the protein stability index came out at 4.41 ± 0.08 (treatment: DMSO) and 4.27 ± 0.26 (treatment: MLN4924 1 uM, 8 h).

Regarding LKEGMLMKIKQDRASRTYELQNQL [FSD1], the protein stability index runs as follows: (treatment: DMSO) 3.05 ± 0.35; (treatment: MLN4924 1 uM, 8 h) 3.39 ± 0.19.

As to LKEPLHKALQMLLSQPVTYQAFRE [BCL2L13], the protein stability index reads like this: (treatment: DMSO) 2.76 ± 0.085; (treatment: MLN4924 1 uM, 8 h) 2.77 ± 0.4.

In the case of LKHPNIVRLHDSISEEGHHYLIFD [CAMK2A], the protein stability index runs as follows: (treatment: DMSO) 2.58 ± 0.32; (treatment: MLN4924 1 uM, 8 h) 2.79 ± 0.25.

On to LKSELGRKWHKASNYIFVAIFWIV [P2RY14], for which the protein stability index was determined as 2.24 ± 0.61 (treatment: DMSO) and 2.31 ± 0.19 (treatment: MLN4924 1 uM, 8 h).

Take LKTSRKDVKDKETTENENTKFEVR [CHGB]: the protein stability index worked out at 5.03 ± 0.11 (treatment: DMSO) and 5.22 ± 0.092 (treatment: MLN4924 1 uM, 8 h).

On to LLELQSQQACTHTKETEQLRSQLQ [CCDC89], for which the protein stability index was determined as 4.06 ± 0.32 (treatment: DMSO) and 4.29 ± 0.25 (treatment: MLN4924 1 uM, 8 h).

For LLGAVNFFVSSINTLVTKTMEDTL [ARFIP2], the protein stability index by setting is: (treatment: DMSO) 3.13 ± 0.21; (treatment: MLN4924 1 uM, 8 h) 3.07 ± 0.26.

With LLLLLPTLQSITWQMIEQIQFIKL [HNF4A], the protein stability index (treatment: DMSO) was 3.58 ± 0.39 and the protein stability index (treatment: MLN4924 1 uM, 8 h) stood at 3.28 ± 0.28.

LLMTADILAETGIRKTVKRLRKHQ [ELOA2] gave a protein stability index (treatment: DMSO) of 2.41 ± 0.31 and a protein stability index (treatment: MLN4924 1 uM, 8 h) of 2.84 ± 0.25.

Regarding LLPMLDALRFTADVRSVLSRNLHQ [CTDNEP1], the protein stability index (treatment: DMSO) was determined as 2.5 ± 0.37 and the protein stability index (treatment: MLN4924 1 uM, 8 h) turned out to be 2.1 ± 0.21.

Take LLQRRKRENMSDGDTSATESGDEV [KMT2E]: the protein stability index is 5.52 ± 0.17 (treatment: DMSO) and 5.32 ± 0.38 (treatment: MLN4924 1 uM, 8 h).

For LLQTQHALGDAFADLSQKSPELQE [ARFIP2], the protein stability index by setting is: (treatment: DMSO) 4.7 ± 0.22; (treatment: MLN4924 1 uM, 8 h) 4.77 ± 0.21.

Consider LLSRFSVGIFHLMQIAVPCAFLLL [TMEM175], for which the protein stability index reads like this: (treatment: DMSO) 2.6 ± 0.35; (treatment: MLN4924 1 uM, 8 h) 2.24 ± 0.25.
